Measured values reported in the RNAGym collection of RNA variant scans (doi:10.7554/elife.80360).

B1: Hammerhead Ribozyme (parent)
chain: ACCGGAUGUGCUUUCCGGUCUGAUGAGUCCGUGAGGACGAAACAG

Variants of: B1
Assay: self-cleavage, relative activity (ratio to wild type); higher = more cleavage; co-transcriptional

Q: For C11U G45C, which self-cleavage is on record?
A: 0.44

Q: For C11U G45A, which self-cleavage is on record?
A: 0.515

Q: Which self-cleavage does the source give for C11U G45U here?
A: 0.497

Q: Which self-cleavage does the source give for U12A U14C here?
A: 0.946

Q: Which self-cleavage does the source give for U12A U14G here?
A: 0.565

Q: Which self-cleavage does the source give for U12A U14A here?
A: 0.798

Q: With U12A A40G as the variant, how does the self-cleavage read?
A: 0.315

Q: For U12A A40U, which self-cleavage is on record?
A: 0.32

Q: Which self-cleavage does the source give for U12A A40C here?
A: 0.556

Q: Which self-cleavage does the source give for U12A U19G here?
A: 0.431

Q: Which self-cleavage does the source give for U12A U19A here?
A: 0.419

Q: With U12A U19C as the variant, how does the self-cleavage read?
A: 0.366

Q: Which self-cleavage does the source give for U12A C15A here?
A: 0.979

Q: For U12A C15U, which self-cleavage is on record?
A: 0.668

Q: Which self-cleavage does the source give for U12A C15G here?
A: 0.85

Q: Which self-cleavage does the source give for U12A G39U here?
A: 0.361

Q: Which self-cleavage does the source give for U12A G39A here?
A: 0.257

Q: For U12A G39C, which self-cleavage is on record?
A: 0.338

Q: Which self-cleavage does the source give for U12C A26C here?
A: 0.505

Q: With U12C A26G as the variant, how does the self-cleavage read?
A: 0.308

Q: Which self-cleavage does the source give for U12C A26U here?
A: 0.854

Q: For U12A G25U, which self-cleavage is on record?
A: 0.331

Q: Which self-cleavage does the source give for U12A G25A here?
A: 0.303

Q: For U12A G25C, which self-cleavage is on record?
A: 0.224

Q: Which self-cleavage does the source give for U12A C29A here?
A: 0.634

Q: With U12A C29G as the variant, how does the self-cleavage read?
A: 0.721

Q: For U12A C29U, which self-cleavage is on record?
A: 0.881

Q: With U12A C16G as the variant, how does the self-cleavage read?
A: 0.764

Q: With U12A C16U as the variant, how does the self-cleavage read?
A: 1.1

Q: With U12A C16A as the variant, how does the self-cleavage read?
A: 1.03

Q: For C11U U32A, which self-cleavage is on record?
A: 0.889

Q: For C11U U32C, which self-cleavage is on record?
A: 0.964

Q: With C11U U32G as the variant, how does the self-cleavage read?
A: 0.799

Q: For C11U U12A, which self-cleavage is on record?
A: 1.3

Q: With C11U U12G as the variant, how does the self-cleavage read?
A: 1.18

Q: Which self-cleavage does the source give for C11U U12C here?
A: 1.28

Q: With C11U U21A as the variant, how does the self-cleavage read?
A: 0.697

Q: With C11U U21G as the variant, how does the self-cleavage read?
A: 0.563

Q: With C11U U21C as the variant, how does the self-cleavage read?
A: 0.561

Q: For C11U U19G, which self-cleavage is on record?
A: 0.329

Q: Which self-cleavage does the source give for C11U U19A here?
A: 0.32

Q: For C11U U19C, which self-cleavage is on record?
A: 0.484

Q: For U12A G36U, which self-cleavage is on record?
A: 0.596

Q: Which self-cleavage does the source give for U12A G36C here?
A: 0.758

Q: Which self-cleavage does the source give for U12A G36A here?
A: 0.571

Q: For U12A C38G, which self-cleavage is on record?
A: 0.719

Q: With U12A C38A as the variant, how does the self-cleavage read?
A: 0.807

Q: With U12A C38U as the variant, how does the self-cleavage read?
A: 0.87

Q: With U12C A34C as the variant, how does the self-cleavage read?
A: 0.877

Q: With U12A G45C as the variant, how does the self-cleavage read?
A: 0.602

Q: For U12A G45U, which self-cleavage is on record?
A: 0.67

Q: Which self-cleavage does the source give for U12A G45A here?
A: 0.678

Q: Which self-cleavage does the source give for C11U G33A here?
A: 0.95

Q: Which self-cleavage does the source give for C11U G33C here?
A: 0.659

Q: Which self-cleavage does the source give for C11U G33U here?
A: 1.04

Q: For C11U U14A, which self-cleavage is on record?
A: 0.998

Q: With C11U U14G as the variant, how does the self-cleavage read?
A: 0.765

Q: With C11U U14C as the variant, how does the self-cleavage read?
A: 0.771

Q: Which self-cleavage does the source give for C11U G27C here?
A: 0.58

Q: With C11U G27A as the variant, how does the self-cleavage read?
A: 0.666

Q: For C11U G27U, which self-cleavage is on record?
A: 0.487

Q: With U12A G35A as the variant, how does the self-cleavage read?
A: 0.724

Q: Which self-cleavage does the source give for U12A G35C here?
A: 0.653

Q: Which self-cleavage does the source give for U12A G35U here?
A: 0.629

Q: Which self-cleavage does the source give for C11U G25U here?
A: 0.318

Q: Which self-cleavage does the source give for C11U G25A here?
A: 0.39

Q: Which self-cleavage does the source give for C11U G25C here?
A: 0.248

Q: Which self-cleavage does the source give for U12A A37G here?
A: 0.71

Q: Which self-cleavage does the source give for U12A A37C here?
A: 1.2

Q: With U12A A37U as the variant, how does the self-cleavage read?
A: 0.827

Q: For U12A A34C, which self-cleavage is on record?
A: 1.08

Q: With U12A A34U as the variant, how does the self-cleavage read?
A: 1

Q: For U12A A34G, which self-cleavage is on record?
A: 0.904

Q: For C11U G18U, which self-cleavage is on record?
A: 0.469

Q: With C11U G18C as the variant, how does the self-cleavage read?
A: 0.319

Q: For C11U G18A, which self-cleavage is on record?
A: 0.428

Q: With U12A A23G as the variant, how does the self-cleavage read?
A: 0.394

Q: For U12A A23U, which self-cleavage is on record?
A: 0.317

Q: Which self-cleavage does the source give for U12A A23C here?
A: 0.366

Q: For C11U G39A, which self-cleavage is on record?
A: 0.383

Q: For C11U G39C, which self-cleavage is on record?
A: 0.389

Q: For C11U G39U, which self-cleavage is on record?
A: 0.3

Q: Which self-cleavage does the source give for U12A C20G here?
A: 0.312

Q: Which self-cleavage does the source give for U12A C20A here?
A: 0.313

Q: For U12A C20U, which self-cleavage is on record?
A: 0.431

Q: With C11U C43U as the variant, how does the self-cleavage read?
A: 0.529

Q: For C11U C43G, which self-cleavage is on record?
A: 0.392

Q: For U12A U21G, which self-cleavage is on record?
A: 0.425

Q: With U12A U21C as the variant, how does the self-cleavage read?
A: 0.517

Q: For U12A U21A, which self-cleavage is on record?
A: 0.658

Q: For U12A A42G, which self-cleavage is on record?
A: 0.252

Q: Which self-cleavage does the source give for U12A A42U here?
A: 0.313

Q: With U12A A42C as the variant, how does the self-cleavage read?
A: 0.359

Q: For U12A U24G, which self-cleavage is on record?
A: 1.23

Q: With U12A U24C as the variant, how does the self-cleavage read?
A: 0.727

Q: Which self-cleavage does the source give for U12A U24A here?
A: 0.937

Q: With U12A as the variant, how does the self-cleavage read?
A: 1.05

Q: With U12C as the variant, how does the self-cleavage read?
A: 1.05

Q: Which self-cleavage does the source give for C11U U28C here?
A: 0.954

Q: For C11U U28G, which self-cleavage is on record?
A: 0.703

Q: For C11U U28A, which self-cleavage is on record?
A: 0.768

Q: Which self-cleavage does the source give for U12C A23U here?
A: 0.321

Q: Which self-cleavage does the source give for U12C A23C here?
A: 0.361

Q: For U12C A23G, which self-cleavage is on record?
A: 0.37

Q: For C11U G36A, which self-cleavage is on record?
A: 0.607

Q: Which self-cleavage does the source give for C11U G36U here?
A: 0.669

Q: For C11U G36C, which self-cleavage is on record?
A: 0.499

Q: Which self-cleavage does the source give for U12A A41U here?
A: 0.388

Q: For U12A A41G, which self-cleavage is on record?
A: 0.32

Q: Which self-cleavage does the source give for U12A A41C here?
A: 0.325

Q: With U12A U28C as the variant, how does the self-cleavage read?
A: 1.1

Q: For U12A U28A, which self-cleavage is on record?
A: 0.873

Q: Which self-cleavage does the source give for U12A U28G here?
A: 0.92

Q: With U12A G17C as the variant, how does the self-cleavage read?
A: 0.423

Q: With U12A G17U as the variant, how does the self-cleavage read?
A: 0.827

Q: Which self-cleavage does the source give for U12A G17A here?
A: 0.77

Q: Which self-cleavage does the source give for U12A A44G here?
A: 1.66

Q: Which self-cleavage does the source give for U12A A44U here?
A: 0.61

Q: For U12A A44C, which self-cleavage is on record?
A: 0.481

Q: Which self-cleavage does the source give for U12A G27U here?
A: 0.412

Q: With U12A G27A as the variant, how does the self-cleavage read?
A: 0.77

Q: With U12A G27C as the variant, how does the self-cleavage read?
A: 0.663

Q: For U12A G33C, which self-cleavage is on record?
A: 1.37

Q: Which self-cleavage does the source give for U12A G33U here?
A: 1.03

Q: For U12A G33A, which self-cleavage is on record?
A: 1.08

Q: With C11U G22A as the variant, how does the self-cleavage read?
A: 0.382

Q: For C11U G22U, which self-cleavage is on record?
A: 0.341

Q: For C11U G22C, which self-cleavage is on record?
A: 0.339

Q: Which self-cleavage does the source give for U12A U32C here?
A: 1.14

Q: Which self-cleavage does the source give for U12A U32G here?
A: 0.878

Q: With U12A U32A as the variant, how does the self-cleavage read?
A: 0.698

Q: Which self-cleavage does the source give for U12A C43G here?
A: 0.301

Q: Which self-cleavage does the source give for U12A C43U here?
A: 0.392

Q: Which self-cleavage does the source give for U12A C43A here?
A: 0.33

Q: With C11U G35C as the variant, how does the self-cleavage read?
A: 0.588

Q: Which self-cleavage does the source give for C11U G35U here?
A: 0.846

Q: For C11U G35A, which self-cleavage is on record?
A: 0.64

Q: Which self-cleavage does the source give for U12A A26C here?
A: 0.429

Q: Which self-cleavage does the source give for U12A A26G here?
A: 0.424

Q: With U12A A26U as the variant, how does the self-cleavage read?
A: 0.587

Q: For U12A G22A, which self-cleavage is on record?
A: 0.261

Q: With U12A G22U as the variant, how does the self-cleavage read?
A: 0.328

Q: For U12A G22C, which self-cleavage is on record?
A: 0.236

Q: With C11U G31C as the variant, how does the self-cleavage read?
A: 0.937

Q: With C11U G31A as the variant, how does the self-cleavage read?
A: 1.13

Q: With C11U G31U as the variant, how does the self-cleavage read?
A: 1.35

Q: For U12A U13C, which self-cleavage is on record?
A: 1.05

Q: For U12A U13A, which self-cleavage is on record?
A: 1.23

Q: For U12A U13G, which self-cleavage is on record?
A: 0.762

Q: Which self-cleavage does the source give for U12A C30A here?
A: 1.08

Q: With U12A C30G as the variant, how does the self-cleavage read?
A: 0.859

Q: For U12A C30U, which self-cleavage is on record?
A: 1.07

Q: With C11U U24C as the variant, how does the self-cleavage read?
A: 1.08

Q: Which self-cleavage does the source give for C11U U24G here?
A: 1.02

Q: For C11U U24A, which self-cleavage is on record?
A: 1.2

Q: Which self-cleavage does the source give for U12A G18U here?
A: 0.888

Q: With U12A G18C as the variant, how does the self-cleavage read?
A: 0.565

Q: For U12A G18A, which self-cleavage is on record?
A: 0.726

Q: For C11U G17A, which self-cleavage is on record?
A: 0.475

Q: Which self-cleavage does the source give for C11U G17U here?
A: 0.405

Q: With C11U G17C as the variant, how does the self-cleavage read?
A: 0.43

Q: With U12A G31C as the variant, how does the self-cleavage read?
A: 0.801

Q: With U12A G31A as the variant, how does the self-cleavage read?
A: 0.978

Q: Which self-cleavage does the source give for U12A G31U here?
A: 1.12

Q: For C11U U13G, which self-cleavage is on record?
A: 1.25

Q: Which self-cleavage does the source give for C11U U13A here?
A: 1.34

Q: With C11U U13C as the variant, how does the self-cleavage read?
A: 0.915
